Experimental findings from US20180044385A1 (published 2018) are described below.

This experiment addresses human IgG1 scaffold. Description: SPR. In general terms: SPR reads the build-up and loss of mass on a sensor chip optically.

B1: A1 (designed binder)
chain: MKGETTTEAVDAATAEKVFKQYANDNGVDGEWTYDDATKTFTVTEKPEVIDASELTPAVTTYKLVINGRTLSGYTTTTAVDAATAEKVFKQYAYVHEVDGEWTYDDATKTFTVTEKPEVIDASELTPAVTTYKLVINGRTLSGETTTKAVDAETAEKAFKQYANDNGVDGVWTYDDATKTFTVTE
As to B1, the Kd came to 24 nM.

B2: WT (other)
chain: LTPAVTTYKLVINGKTLKGETTTKAVDAATAEKVFKQYANDNGVDGEWTYDDATKTFTVTEKPEVI
For the molecule B2, binding was put at a Kd of 3000 nM.

As usually defined, the Kd is the constant that tells how readily two partners part at equilibrium.
